Data published in patent publication US20250243292A1 (published 2025).

T1: fully glycosylated CD24 (recombinant, from CHO cells) (N-glycans, sialic acid and O-glycans kept (untreated))
T1 construct: Recombinant CD24 made in CHO cells, untreated; also called fully modified (N-glycan+sialic acid+O-glycan modifications) CD24; CD24 without deglycosylation
T1 chain: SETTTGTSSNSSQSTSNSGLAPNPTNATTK

B1: peptide 4 (peptide)
peptide: SNSGLAPNPT
notes: Synthetic overlapping peptide of mature CD24
B2: PP6373 (antibody, human IgG1, kappa, V domains shown)
VH: EVKFEESGGGLVQPGGSIKLSCAASGVTFSEAWMDWVRQSPEKGLEWVAEIRDKPNSYVTYYAESVKGRFTISRDDSKSRVYLQMNNLRTEDTGIYYCTGAMDYWGQGTSVTVSS
VL: DIVMTQTPLSLSVTIGQPASISCKSSQSLLYSNGKTYLNWLQQRPGQSPKRLIYQVSKLDPGIPDRFSGSGSETDFTLKISRVEAEDLGIYYCMQGSSLPWTFGGGTKLEIKR
notes: Biotinylated in tissue and cell staining; also called H4069 + L4071; P3050.ComF1.2H1
B3: SEQ ID NO 44 (peptide)
peptide: GTSSNSSQST
notes: Synthetic overlapping peptide of mature CD24; by order probably peptide 2; also called one of the five overlapping CD24 peptides
B4: SEQ ID NO 45 (peptide)
peptide: SSQSTSNSGL
notes: Synthetic overlapping peptide of mature CD24; by order probably peptide 3; also called one of the five overlapping CD24 peptides
B5: SNSGLAPN (SEQ ID NO: 48) (peptide)
peptide: SNSGLAPN
notes: C-terminally truncated form of peptide 4; also called truncated peptide 4
B6: SEQ ID NO 47 (peptide)
peptide: APNPTNATTK
notes: Synthetic overlapping peptide of mature CD24; by order probably peptide 5; also called one of the five overlapping CD24 peptides
B7: SEQ ID NO 43 (peptide)
peptide: SETTTGTSSN
notes: Synthetic overlapping peptide of mature CD24; by order probably peptide 1; also called one of the five overlapping CD24 peptides

Key:
PP6373 [1] = molecular target: B2; assay: peptide inhibition ELISA, peptides titrated over a large dose range
Procedure: (§1) To determine the antigenic epitope recognized by 3B6 and affinity matured clone PP6373, we synthesized overlapping peptides covering the mature CD24 amino acid sequence (Seq ID No 42), and pre-incubated them with 3B6 antibody prior to adding 3B6 to plates pre-coated with NO-CD24 protein (CD24Fc pretreated sequentially with N-glycosidase, NanA and O-glycosidase).

[2] = molecular target: T1, fully glycosylated CD24 (recombinant, …); assay: ELISA titration on coated Fc removed CD24, untreated
Procedure: FIG. 8. Quantitative comparison of binding between different CD24 glycoforms and anti-CD24 antibodies: parental PP6229 vs affinity matured PP6373. Fc removed CD24 were coated onto ELISA plate, and were then treated with either buffer (CD24), NanA (SA-) or NanA+N-glycanse (SA-N-) prior adding given doses of […] (left panel) or PP6373 (right panel). The maximum concentration tested was 7812.50 ng/ml with titration factor of 5× to a minimum concentration of 0.02 ng/ml.
Therefore, this clone is chosen for further study. The heavy chain sequence for PP6373 is listed in SEQ ID NO: 6 and the light chain sequence is listed on SEQ ID No.16. Compared with the parental sequence, the heavy chain has three mutations in CDR2, while the light chain has one mutation in CDR3 of the light chain. […] It is also of note that PP6373 gained the ability to bind to CD24 even without deglycosylation at 1/1000 level of that to SA-N-CD24. However, since CHO cells is known to have incomplete glycosylation, it is likely that the binding reflect the higher sensitivity of the antibody to detect minor glycoform in the recombinant CD24 prepared from CHO cells.

3B6 = molecular target: T2, 3B6; assay: peptide inhibition ELISA, 3B6 on NO-CD24
T2 construct: Monoclonal antibody; also called anti-CD24 monoclonal antibody 3B6
Procedure: as §1

PP6373 [3] = molecular target: B2; assay: peptide inhibition ELISA, PP6373 on SA-N-CD24, peptides titrated
PP6373 [4] = molecular target: B2; assay: inhibition assay with truncated peptides

Binder | binding result (3B6) | binding result (PP6373 [3]) | also measured
B1 |  |  | binding result (PP6373 [1]): binds
B2 |  |  | binding relative to that to SA-N-CD24 [2]: 0.001 ratio
B3 | no binding | no binding | 
B4 | no binding | no binding | 
B5 |  |  | binding result (PP6373 [4]): binds
B6 | no binding | no binding | 
B7 | no binding | no binding | 
